From paper PMC13623948, “Steric Gating Contributes to the Preferential Ubiquitin Charging of BIRC6 by UBA6 versus UBA1” (Nature Communications, 2026)

Molecular target: T1, human UBA6 (full-length, amino acid residues 1-1052) (human, UniProt A0AVT1 1-1052)
T1 construct: UBA6, human, Uniprot entry A0AVT1, full-length, residues 1-1052; The cloning methods name only the N-terminal 3×FLAG tag; the BLI methods say that His-tagged ligands were captured on anti-Penta-His sensors; also called UBA6^WT
T1 sequence (looked up): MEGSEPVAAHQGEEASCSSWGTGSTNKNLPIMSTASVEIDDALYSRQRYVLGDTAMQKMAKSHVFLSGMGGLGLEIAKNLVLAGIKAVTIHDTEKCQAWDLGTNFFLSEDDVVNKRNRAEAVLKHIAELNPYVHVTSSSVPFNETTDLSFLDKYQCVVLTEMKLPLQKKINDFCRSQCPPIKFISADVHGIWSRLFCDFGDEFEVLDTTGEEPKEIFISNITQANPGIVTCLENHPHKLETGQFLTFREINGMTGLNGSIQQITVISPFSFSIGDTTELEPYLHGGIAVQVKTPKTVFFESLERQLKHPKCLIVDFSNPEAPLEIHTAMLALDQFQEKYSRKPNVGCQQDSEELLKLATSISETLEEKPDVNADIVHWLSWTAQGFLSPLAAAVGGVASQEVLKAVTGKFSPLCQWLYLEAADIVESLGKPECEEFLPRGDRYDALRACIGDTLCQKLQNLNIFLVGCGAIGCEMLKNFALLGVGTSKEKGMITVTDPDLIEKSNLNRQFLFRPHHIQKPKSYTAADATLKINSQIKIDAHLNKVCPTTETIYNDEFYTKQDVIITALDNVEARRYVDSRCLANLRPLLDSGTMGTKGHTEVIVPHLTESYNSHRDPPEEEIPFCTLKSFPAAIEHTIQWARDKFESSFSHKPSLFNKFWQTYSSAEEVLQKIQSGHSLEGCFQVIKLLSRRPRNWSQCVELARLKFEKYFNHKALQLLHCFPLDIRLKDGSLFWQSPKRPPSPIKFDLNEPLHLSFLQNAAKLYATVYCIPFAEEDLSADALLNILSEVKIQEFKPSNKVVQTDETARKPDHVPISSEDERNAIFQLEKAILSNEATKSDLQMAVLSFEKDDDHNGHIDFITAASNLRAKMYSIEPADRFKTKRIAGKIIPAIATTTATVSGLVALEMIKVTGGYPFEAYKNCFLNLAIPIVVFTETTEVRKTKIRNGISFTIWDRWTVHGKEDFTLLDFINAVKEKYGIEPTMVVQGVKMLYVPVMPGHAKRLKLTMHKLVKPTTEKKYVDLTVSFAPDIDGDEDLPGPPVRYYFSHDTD
Assay: BLI; His-tagged E1 ligands on Anti-Penta-His (His1K) biosensors; analyte BIRC6^UBC or BIRC6^(UBCΔinsertion loop) at 40-3240 nM; 50 mM HEPES, pH 7.4, 150 mM NaCl, 0.05% Tween-20, 10 mM imidazole; 25 °C; steady-state 1:1 fit
Conditions: both partners purified

Kd: 4.82 µM
B1: UBC domain of BIRC6 (residues 4520-4857) (domain or fragment)
chain: not shown
notes: BIRC6 UBC domain, human, Uniprot entry Q9NR09, residues 4520-4857; also called BIRC6^UBC; WT BIRC6^UBC; source: E. coli BL21 (DE3), purified (Ni-NTA, HRV 3C cleavage, SEC); not shown: His6, N-terminal, cleaved
